# In patent US20090082262A1 (published 2009):
# *: point of attachment. Nonanoyl = CCCCCCCCC(=O)*
# T1: chemokine receptor CCR3 (UniProt P51677 1-355, limits assumed)
# T1 construct: whole, on cells
# T1 sequence (looked up): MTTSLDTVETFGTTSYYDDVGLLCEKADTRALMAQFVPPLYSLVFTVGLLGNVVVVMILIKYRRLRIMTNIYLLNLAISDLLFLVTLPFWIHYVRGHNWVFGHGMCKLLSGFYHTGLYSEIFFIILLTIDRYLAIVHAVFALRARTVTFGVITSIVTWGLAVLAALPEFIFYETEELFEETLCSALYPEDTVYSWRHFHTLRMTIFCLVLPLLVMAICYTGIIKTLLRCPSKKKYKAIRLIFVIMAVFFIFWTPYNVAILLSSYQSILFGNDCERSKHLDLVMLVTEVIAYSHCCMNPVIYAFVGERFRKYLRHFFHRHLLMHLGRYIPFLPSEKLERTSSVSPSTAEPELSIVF
# Legend:
# [1] = target: T2, chemokine receptor 1 (CCR1) (UniProt P56482 1-355); test: competition with 125I-Rantes binding to CCR1
# chemokine receptor CCR3 = target: T1, chemokine receptor CCR3; test: competition with 0.1 nM 125I-Eotaxin, membranes of CHO-K1 cells expressing CCR3, filtration
# Method: (§1) For determination of its binding properties, CHO-K1 cells were used which were stably transfected with the chemokine receptors CCR1, CCR3, CCR5. Therefore, crude membrane extracts prepared from the CHO-K1 cell lines expressing the various GPC were used in radioligand binding assays. Competition binding assays were performed in Minisorp tubes (Nunc, Roskilde, Denmark) in a total volume of 100 μl containing 0.1 nM iodinated ligand as tracer, variable concentrations of competitors and defined amount of membranes. Total binding was measured in the absence of competitor and non-specific binding was measured with a 100-fold excess, of unlabelled ligand. Samples were incubated for 90 minutes at 25° C. then filtered through GF/B filters presoaked in 0.3% polyethylenenimine. Filters were counted in a gamma scintillation counter (Packard). Binding parameters were determined with the PRISM software (Graphpad software, San Diego, Calif.) using non-linear regression applied to a one site competition model.
# The processed chemokine PHC-1 was a strong competitor of ¹²⁵I-Rantes binding to CCR1 with half-maximal inhibitory concentration of 2.3±0.7 nM. (Ki±SEM).
# [2] = target: T2, chemokine receptor 1 (CCR1); test: competition with 0.1 nM 125I-Rantes, membranes of CHO-K1 cells expressing CCR1, filtration
# [3] = target: T3, chemokine receptor 5 (CCR5) (human, UniProt P51681 1-352); test: competition with [125I]-MIP-β1, CHO-K1 membranes
# T3 construct: whole, on cells
# Method: as §1
# FIG. 6 represents the compound PHC-1, full size HCC-1 and reference chemokines tested on CCR1, CCR3 and CCR5. Competition binding assays were performed with [¹²⁵I]-RANTES for CCR1, [¹²⁵I]-Eotaxin for CCR3 and [¹²⁵I]-MIP-1, for CCR5. PHC-1, HCC1, MIP-1, RANTES, Eotaxin and MCP-4 were used as competitors. FIGS. 3 and 4 show the binding of additional chemokine compounds of the invention to the CCR5 and CCR1 respectively. Competition assays were performed with [¹²⁵I]-MIP-β1 for CCR5, and [¹²⁵I]-MIP-α1 for CCR1. Each of the chemokine compounds tested was capable of binding both the CCR5 and CCR1 receptors.
# [4] = target: T3, chemokine receptor 5 (CCR5); test: radioligand competition binding as in Example 4
# Method: as §1
# FIG. 6 represents the compound PHC-1, full size HCC-1 and reference chemokines tested on CCR1, CCR3 and CCR5. Competition binding assays were performed with [¹²⁵I]-RANTES for CCR1, [¹²⁵I]-Eotaxin for CCR3 and [¹²⁵I]-MIP-1, for CCR5. PHC-1, HCC1, MIP-1, RANTES, Eotaxin and MCP-4 were used as competitors. […]
# [5] = target: T2, chemokine receptor 1 (CCR1); test: radioligand competition binding on CCR1
# T2 sequence (P56482 whole entry): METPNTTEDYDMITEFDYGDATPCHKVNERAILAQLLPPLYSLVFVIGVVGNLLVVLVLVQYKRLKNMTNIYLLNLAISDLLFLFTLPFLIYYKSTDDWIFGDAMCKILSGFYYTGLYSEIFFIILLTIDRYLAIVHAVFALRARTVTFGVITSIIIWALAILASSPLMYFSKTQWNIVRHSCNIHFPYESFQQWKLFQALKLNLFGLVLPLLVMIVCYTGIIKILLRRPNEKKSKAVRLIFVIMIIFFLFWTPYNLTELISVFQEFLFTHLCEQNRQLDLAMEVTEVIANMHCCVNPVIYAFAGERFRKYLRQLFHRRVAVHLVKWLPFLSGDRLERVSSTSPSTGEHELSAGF
# T3 sequence (P51681 whole entry): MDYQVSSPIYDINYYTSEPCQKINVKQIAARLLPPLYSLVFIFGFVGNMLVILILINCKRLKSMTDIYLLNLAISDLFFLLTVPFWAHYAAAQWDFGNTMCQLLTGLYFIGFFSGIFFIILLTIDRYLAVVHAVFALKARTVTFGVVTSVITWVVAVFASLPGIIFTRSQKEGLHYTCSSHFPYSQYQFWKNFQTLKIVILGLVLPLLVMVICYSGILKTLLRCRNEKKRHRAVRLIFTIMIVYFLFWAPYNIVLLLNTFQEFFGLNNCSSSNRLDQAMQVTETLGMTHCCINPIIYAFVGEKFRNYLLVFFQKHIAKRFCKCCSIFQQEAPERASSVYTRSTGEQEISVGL
binder,measurement,setting,value
"PHC-1 (HCC-1[9-74]) (ligand, Purified from human hemofiltrate or made by tryptic digestion of HCC-1 1-74; also called processed chemokine PHC-1; HCC-1, residues 9-74) GPYHPSECCFTYTTYKIPRQRIMDYYETNSQCSKPGIVFITKRGHSVCTNPSDKWVQDYIKDMKEN",Ki,[1],23000 nM
same,IC50,chemokine receptor CCR3,78 nM
same,IC50,[2],2.3 nM
"HCC-1[7-74] (ligand, Synthetic, oxidatively folded) SRGPYHPSECCFTYTTYKIPRQRIMDYYETNSQCSKPGIVFITKRGHSVCTNPSDKWVQDYIKDMKEN",binding result,[3],binds
"HCC-1[8-74] (ligand, Synthetic, oxidatively folded) RGPYHPSECCFTYTTYKIPRQRIMDYYETNSQCSKPGIVFITKRGHSVCTNPSDKWVQDYIKDMKEN",binding result,[3],binds
"HCC-1[10-74] (ligand, Synthetic, oxidatively folded) PYHPSECCFTYTTYKIPRQRIMDYYETNSQCSKPGIVFITKRGHSVCTNPSDKWVQDYIKDMKEN",binding result,[3],binds
"HCC-1[11-74] (ligand, Synthetic, oxidatively folded) YHPSECCFTYTTYKIPRQRIMDYYETNSQCSKPGIVFITKRGHSVCTNPSDKWVQDYIKDMKEN",binding result,[3],binds
"NNY-HCC-1[10-74] (ligand, ends and bridges not checked, An N-terminally modified analog of HCC-1[10-74]; also called nonanoyl-HCC-1[10-74]) Nonanoyl-PYHPSECCFTYTTYKIPRQRIMDYYETNSQCSKPGIVFITKRGHSVCTNPSDKWVQDYIKDMKEN",binding result,[4],binds
"full size HCC-1 (HCC-1, residues 1-74) (ligand, The 74-residue chemokine, Mr 8673; also called full-length HCC-1; HCC-1, 1-74) TKTESSSRGPYHPSECCFTYTTYKIPRQRIMDYYETNSQCSKPGIVFITKRGHSVCTNPSDKWVQDYIKDMKEN",Ki,[5],100 nM
